How the values were obtained:
[1] = target: PSGL1/mIgG2b fusion protein produced in COS-7 m6 cells without cotransfection of the α1,3 GT cDNA (human; mouse) (UniProt Q14242); test: depletion of COS supernatant on beads, remaining fusion protein by anti-mouse IgG Fc sandwich ELISA
[2] = target: PSGL-1/mIgG2b made in CHO-K1 clone 5L4-1 (with porcine α1,3GalT) (human; mouse) (UniProt Q14242); test: sandwich ELISA, fusion protein captured by goat anti-mouse IgG Fc, detected with peroxidase-conjugated lectin or anti-mouse IgG Fc
[3] = target: PSGL-1/mIgG2b made in COS7 m6 clone 5I (with porcine α1,3GalT) (human; mouse) (UniProt Q14242); test: as above
[4] = target: PSGL-1/mIgG2b made in CHO-K1 clone C2-1-9 (with porcine α1,3GalT and C2 GnT1) (human; mouse) (UniProt Q14242); test: as above
[5] = target: PSGL-1/mIgG2b made in 293T clone 14 (with porcine α1,3GalT) (human; mouse) (UniProt Q14242); test: as above
[6] = target: anti-pig reactive antibodies of human blood group AB serum; test: cell-based or functional assay

Molecule: goat anti-mouse IgG agarose beads (A-6531, Sigma) (antibody)
- amount of PSGL1/mIgG2b absorbed onto 50 µl packed beads from 2 ml of supernatant [1]: 260 ng
- amount of PSGL1/mIgG2b absorbed onto 50 µl packed beads from 4 ml of supernatant [1]: 290 ng
- amount of PSGL1/mIgG2b absorbed onto 50 µl packed beads from 8 ml of supernatant [1]: 360 ng

Molecule: peroxidase-conjugated Bandereia simplicifolia isolectin B4 (L-5391, Sigma)
- fold increase in the relative O.D. (GSA-reactivity/anti-mouse IgG reactivity) against PSGL-1/mIgG2b made in CHO without the α1,3GalT [2]: 1.8 fold
- fold increase in the relative O.D. (GSA-reactivity/anti-mouse IgG reactivity) against PSGL-1/mIgG2b made in COS without the α1,3GalT [3]: 5.3 fold
- fold increase of α-Gal epitope density (relative O.D. GSA-reactivity/anti-mouse IgG reactivity) against PSGL-1/mIgG2b made in CHO-K1 cells without the α1,3GalT [4]: 13 fold
- fold increase of α-Gal epitope density (relative O.D. GSA-reactivity/anti-mouse IgG reactivity) against PSGL-1/mIgG2b made with the α1,3GalT alone [4]: 7.4 fold
- fold increase in the relative O.D. (GSA-reactivity/anti-mouse IgG reactivity) against PSGL-1/mIgG2b made in 293T without the α1,3GalT [5]: 3.1 fold

B1: PSGL-1/mIgG2b made in COS7 m6 clone 5I (with porcine α1,3GalT) (Fc fusion, human, UniProt Q14242 18-320, looked up, not shown: a dimerising Fc or GST)
chain: LQLWDTWADEAEKALGPLLARDRRQATEYEYLDYDFLPETEPPEMLRNSTDTTPLTGPGTPESTTVEPAARRSTGLDAGGAVTELTTELANMGNLSTDSAAMEIQTTQPAATEAQTTQPVPTEAQTTPLAATEAQTTRLTATEAQTTPLAATEAQTTPPAATEAQTTQPTGLEAQTTAPAAMEAQTTAPAAMEAQTTPPAAMEAQTTQTTAMEAQTTAPEATEAQTTQPTATEAQTTPLAAMEALSTEPSATEALSMEPTTKRGLFIPFSVSSVTHKGIPMAASNLSVNYPVGAPDHISVKQC
modifications: α-Gal substituted glycans (COS7 m6 cells co-expressing porcine α1,3GalT)
- PAEC cytotoxicity of blood group AB serum after adsorption [6]: 12%
- amount of adsorber needed to reduce the PAEC cytotoxicity of human AB serum to 40% of maximum, against CHO cell-made PSGL-1/mIgG2b [6]: 16 times less

B2: PSGL-1/mIgG2b made in 293T clone 14 (with porcine α1,3GalT) (Fc fusion, human, UniProt Q14242 18-320, looked up, not shown: a dimerising Fc or GST)
chain: LQLWDTWADEAEKALGPLLARDRRQATEYEYLDYDFLPETEPPEMLRNSTDTTPLTGPGTPESTTVEPAARRSTGLDAGGAVTELTTELANMGNLSTDSAAMEIQTTQPAATEAQTTQPVPTEAQTTPLAATEAQTTRLTATEAQTTPLAATEAQTTPPAATEAQTTQPTGLEAQTTAPAAMEAQTTAPAAMEAQTTPPAAMEAQTTQTTAMEAQTTAPEATEAQTTQPTATEAQTTPLAAMEALSTEPSATEALSMEPTTKRGLFIPFSVSSVTHKGIPMAASNLSVNYPVGAPDHISVKQC
modifications: α-Gal substituted glycans (293T cells co-expressing porcine α1,3GalT)
- PAEC cytotoxicity of blood group AB serum after adsorption [6]: 25%
- amount of adsorber needed to reduce the PAEC cytotoxicity of human AB serum to 40% of maximum, against CHO cell-made PSGL-1/mIgG2b [6]: 4 times less

B3: PSGL-1/mIgG2b made in CHO-K1 clone C2-1-9 (with porcine α1,3GalT and C2 GnT1) (Fc fusion, human, UniProt Q14242 18-320, looked up, not shown: a dimerising Fc or GST)
chain: LQLWDTWADEAEKALGPLLARDRRQATEYEYLDYDFLPETEPPEMLRNSTDTTPLTGPGTPESTTVEPAARRSTGLDAGGAVTELTTELANMGNLSTDSAAMEIQTTQPAATEAQTTQPVPTEAQTTPLAATEAQTTRLTATEAQTTPLAATEAQTTPPAATEAQTTQPTGLEAQTTAPAAMEAQTTAPAAMEAQTTPPAAMEAQTTQTTAMEAQTTAPEATEAQTTQPTATEAQTTPLAAMEALSTEPSATEALSMEPTTKRGLFIPFSVSSVTHKGIPMAASNLSVNYPVGAPDHISVKQC
modifications: core 2 branched O-glycans with terminal Galα1,3Gal (Hex-HexNol-HexN-Hex-Hex; NeuAc-Hex-HexNol-HexN-Hex-Hex; NeuGc-Hex-HexNol-HexN-Hex-Hex)
- amount of adsorber needed to reduce the PAEC cytotoxicity of human AB serum to 40% of maximum, against PSGL-1/mIgG2b made in CHO clone 5L4-1 [6]: 10 times less

B4: PSGL-1/mIgG2b made in CHO-K1 clone 5L4-1 (with porcine α1,3GalT) (Fc fusion, human, UniProt Q14242 18-320, looked up, not shown: a dimerising Fc or GST)
chain: LQLWDTWADEAEKALGPLLARDRRQATEYEYLDYDFLPETEPPEMLRNSTDTTPLTGPGTPESTTVEPAARRSTGLDAGGAVTELTTELANMGNLSTDSAAMEIQTTQPAATEAQTTQPVPTEAQTTPLAATEAQTTRLTATEAQTTPLAATEAQTTPPAATEAQTTQPTGLEAQTTAPAAMEAQTTAPAAMEAQTTPPAAMEAQTTQTTAMEAQTTAPEATEAQTTQPTATEAQTTPLAAMEALSTEPSATEALSMEPTTKRGLFIPFSVSSVTHKGIPMAASNLSVNYPVGAPDHISVKQC
modifications: glycans of CHO-K1 cells co-expressing porcine α1,3GalT
- amount of adsorber needed to reduce the PAEC cytotoxicity of human AB serum to 40% of maximum [6]: 9.1 µg
- lowest PAEC cytotoxicity of blood group AB serum reached after adsorption [6]: > 36%
